# Measurements reported in the supplement of paper PMC10567573.
# B1: YPEL3 (parent)
# chain: SKPKTFQAYLDDCHRRYSCAHCRA
# Variants of: B1
# Experiment: protein stability index of a GFP-peptide fusion (GPS, HEK-293T) (PSI 1-6); higher = more stable
# Conditions: c terminus: a fixed tail appended
# 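Note: lentivirally expressed fusions sorted by FACS into six bins by GFP to DsRed ratio, PSI derived from sequencing read proportions per bin multiplied by bin number.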
row,Variant,protein stability index
1,SKPKTFQAYLDDCQRRYSCAHCRA,2.23
2,SKPKTGQAYLDDCHRRYSCAHCRA,3.57
3,SKPKTMQAYLDDCHRRYSCAHCRA,2.94
4,SKPKTHQAYLDDCHRRYSCAHCRA,2.71
5,SKPKTVQAYLDDCHRRYSCAHCRA,2.81
6,SKPKTTQAYLDDCHRRYSCAHCRA,3.23
7,SKPKTSQAYLDDCHRRYSCAHCRA,3.3
8,SKPKTEQAYLDDCHRRYSCAHCRA,3.4
9,SKPKTQQAYLDDCHRRYSCAHCRA,3.21
10,SKPKTIQAYLDDCHRRYSCAHCRA,2.17
11,SKPKTDQAYLDDCHRRYSCAHCRA,3.54
12,SKPKTRQAYLDDCHRRYSCAHCRA,3.21
13,SKPKTNQAYLDDCHRRYSCAHCRA,3.15
14,SKPKTLQAYLDDCHRRYSCAHCRA,2.27
15,SKPKTKQAYLDDCHRRYSCAHCRA,3.23
16,SKPKTYQAYLDDCHRRYSCAHCRA,2.2
17,SKPKTWQAYLDDCHRRYSCAHCRA,2.44
18,SKPKTPQAYLDDCHRRYSCAHCRA,2.96
19,SKPKTFQAYLDDKHRRYSCAHCRA,2.69
20,SKPKTFQAYLDDNHRRYSCAHCRA,2.27
21,SKPKTFQAYLDDWHRRYSCAHCRA,1.71
22,SKPKTFQAYLDDIHRRYSCAHCRA,1.94
23,SKPKTFQAYLDDGHRRYSCAHCRA,2.07
24,SKPKTFQAYLDDAHRRYSCAHCRA,1.8

row,Variant,protein stability index
1,SKPKTFQAYLDDDHRRYSCAHCRA,1.99
2,SKPKTFQAYLDDHHRRYSCAHCRA,1.75
3,SKPKTFQAYLDDTHRRYSCAHCRA,2.01
4,SKPKTFQAYLDDEHRRYSCAHCRA,1.78
5,SKPKTFQAYLDDQHRRYSCAHCRA,2.48
6,SKPKTFQAYLDDYHRRYSCAHCRA,2.44
7,SKPKTFQAYLDDVHRRYSCAHCRA,2.54
8,SKPKTFQAYLDDFHRRYSCAHCRA,2.1
9,SKPKTFQAYLDDSHRRYSCAHCRA,2.25
10,SKPKTFQAYLDDMHRRYSCAHCRA,2.79
11,SKPKTFQAYLDDLHRRYSCAHCRA,2.12
12,SKPKTFQAYLDDRHRRYSCAHCRA,2.19
13,SKPKTFQAYLDDPHRRYSCAHCRA,1.68
14,SKPKTFQGYLDDCHRRYSCAHCRA,1.91
15,SKPKTFQYYLDDCHRRYSCAHCRA,2.02
16,SKPKTFQQYLDDCHRRYSCAHCRA,2.5
17,SKPKTFQKYLDDCHRRYSCAHCRA,2.31
18,SKPKTFQMYLDDCHRRYSCAHCRA,1.66
19,SKPKTFQRYLDDCHRRYSCAHCRA,1.88
20,SKPKTFQLYLDDCHRRYSCAHCRA,2.4
21,SKPKTFQTYLDDCHRRYSCAHCRA,2.1
22,SKPKTFQSYLDDCHRRYSCAHCRA,1.82
23,SKPKTFQFYLDDCHRRYSCAHCRA,1.78
24,SKPKTFQWYLDDCHRRYSCAHCRA,2.09

row,Variant,protein stability index
1,SKPKTFQHYLDDCHRRYSCAHCRA,2.51
2,SKPKTFQCYLDDCHRRYSCAHCRA,2.32
3,SKPKTFQPYLDDCHRRYSCAHCRA,2.62
4,SKPKTFQEYLDDCHRRYSCAHCRA,1.92
5,SKPKTFQIYLDDCHRRYSCAHCRA,1.81
6,SKPKTFQVYLDDCHRRYSCAHCRA,2.23
7,SKPKTFQNYLDDCHRRYSCAHCRA,2.49
8,SKPKTFQDYLDDCHRRYSCAHCRA,1.54
9,SKPKTFQADLDDCHRRYSCAHCRA,2.38
10,SKPKTFQAHLDDCHRRYSCAHCRA,1.88
11,SKPKTFQAVLDDCHRRYSCAHCRA,2.41
12,SKPKTFQASLDDCHRRYSCAHCRA,1.4
13,SKPKTFQAFLDDCHRRYSCAHCRA,2.67
14,SKPKTFQAELDDCHRRYSCAHCRA,3
15,SKPKTFQATLDDCHRRYSCAHCRA,1.52
16,SKPKTFQAALDDCHRRYSCAHCRA,2.19
17,SKPKTFQANLDDCHRRYSCAHCRA,2.17
18,SKPKTFQALLDDCHRRYSCAHCRA,1.96
19,SKPKTFQAMLDDCHRRYSCAHCRA,1.89
20,SKPKTFQAQLDDCHRRYSCAHCRA,2.45
21,SKPKTFQAILDDCHRRYSCAHCRA,2
22,SKPKTFQAPLDDCHRRYSCAHCRA,3.08
23,SKPKTFQACLDDCHRRYSCAHCRA,2.33
24,SKPKTFQARLDDCHRRYSCAHCRA,1.94

row,Variant,protein stability index
1,SKPKTFQAGLDDCHRRYSCAHCRA,2.85
2,SKPKTFQAWLDDCHRRYSCAHCRA,1.93
3,SKPKTFQAKLDDCHRRYSCAHCRA,1.93
4,SKPKTFQAYLDDCHYRYSCAHCRA,1.56
5,SKPKTFQAYLDDCHWRYSCAHCRA,2.2
6,SKPKTFQAYLDDCHLRYSCAHCRA,2.01
7,SKPKTFQAYLDDCHIRYSCAHCRA,2.25
8,SKPKTFQAYLDDCHFRYSCAHCRA,2.07
9,SKPKTFQAYLDDCHERYSCAHCRA,3.59
10,SKPKTFQAYLDDCHSRYSCAHCRA,1.61
11,SKPKTFQAYLDDCHKRYSCAHCRA,2.15
12,SKPKTFQAYLDDCHCRYSCAHCRA,2.72
13,SKPKTFQAYLDDCHARYSCAHCRA,2.1
14,SKPKTFQAYLDDCHQRYSCAHCRA,1.65
15,SKPKTFQAYLDDCHTRYSCAHCRA,2.48
16,SKPKTFQAYLDDCHGRYSCAHCRA,1.88
17,SKPKTFQAYLDDCHDRYSCAHCRA,2.67
18,SKPKTFQAYLDDCHNRYSCAHCRA,2.79
19,SKPKTFQAYLDDCHPRYSCAHCRA,1.82
20,SKPKTFQAYLDDCHMRYSCAHCRA,1.68
21,SKPKTFQAYLDDCHVRYSCAHCRA,1.57
22,SKPKTFQAYLDDCHHRYSCAHCRA,2.72
